Measured values published in patent US20040092712A1 (published 2004).

T1: sCD14(1-307)S286C (human, UniProt P08571 20-326)
T1 construct: CD14 mutant polypeptide expressed in COS-1 cells; also called CD14(s286C)
T1 sequence: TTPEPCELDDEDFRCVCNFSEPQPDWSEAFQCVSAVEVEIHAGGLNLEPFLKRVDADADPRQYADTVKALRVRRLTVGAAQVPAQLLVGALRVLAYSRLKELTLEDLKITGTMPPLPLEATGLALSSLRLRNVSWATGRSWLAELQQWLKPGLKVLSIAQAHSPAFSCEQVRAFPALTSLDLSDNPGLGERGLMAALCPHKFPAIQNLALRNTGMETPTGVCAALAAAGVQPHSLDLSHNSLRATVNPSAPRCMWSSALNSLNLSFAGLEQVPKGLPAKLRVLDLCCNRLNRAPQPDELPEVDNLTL

B1: human serum-derived soluble type CD14 (receptor)
chain: TTPEPCELDDEDFRCVCNFSEPQPDWSEAFQCVSAVEVEIHAGGLNLEPFLKRVDADADPRQYADTVKALRVRRLTVGAAQVPAQLLVGALRVLAYSRLKELTLEDLKITGTMPPLPLEATGLALSSLRLRNVSWATGRSWLAELQQWLKPGLKVLSIAQAHSPAFSCEQVRAFPALTSLDLSDNPGLGERGLMAALCPHKFPAIQNLALRNTGMETPTGVCAALAAAGVQPHSLDLSHNSLRATVNPSAPRCMWSSALNSLNLSFAGLEQVPKGLPAKLRVLDLSCNRLNRAPQPDELPEVDNLTLDGNPFLVPGTALPHEGSMNSGVVPACARSTLSVGVSGTLVL
B2: rhesus monkey soluble type CD14 (serum) (receptor)
chain: TTPEPCELDDEDFRCVCNFSEPHPDWSEAFQCVSAVEVEIRVGGLSLEPFLTRVDPDADPRQYADTIKALRVRRLTVGAAQVPAQLLVGALRVLAYSRLQELTLEDLEITGTMPPLPLEATGLALSSLRLHNVSWATGRSWLAELQQWLKPGLKVLSIAQAHSPAFSCEQVRAFPALTSLDLSDNPGLGERGLIAALCPHKFPALQNLALRNTGMETPTGVCAALAAAGVQPHSLDLSHNSLRATANPSAPRCMWSSALNSLNLSFAGLEQVPKGLPAKLRVLDLSCNRLNRRPRPDELPQVDNLALDGNPFLVPGTALPQEGSMN
B3: crab-eating macaque soluble type CD14 (serum) (receptor)
chain: B2 chain
B4: rabbit soluble type CD14 (rabbit serum) (receptor, rabbit (New Zealand white), UniProt Q28680 18-342, looked up)
chain: STDTPEPCELDDDDIRCVCNFSDPQPDWSSALQCMPAVQVEMWGGGHSLEQFLRQADLYTDQRRYADVVKALRVRRLTVGAVQVPAPLLLGVLRVLGYSRLKELALEDIEVTGTAPPPPPLEATGPALSTLSLRNVSWPKGGAWLSELQQWLKPGLQVLNIAQAHTLAFSCEQVRTFSALTTLDLSENPGLGERGLVAALCPHKFPALQDLALRNAGMKTLQGVCAALAEAGVQPHHLDLSHNSLRADTQRCIWPSALNSLNLSFTGLQQVPKGLPAKLNVLDLSCNKLNRAPQPGELPKVVNLSLDGNPFLVPGASKLQEDLTN
B5: sCD14(1-356) (receptor)
chain: TTPEPCELDDEDFRCVCNFSEPQPDWSEAFQCVSAVEVEIHAGGLNLEPFLKRVDADADPRQYADTVKALRVRRLTVGAAQVPAQLLVGALRVLAYSRLKELTLEDLKITGTMPPLPLEATGLALSSLRLRNVSWATGRSWLAELQQWLKPGLKVLSIAQAHSPAFSCEQVRAFPALTSLDLSDNPGLGERGLMAALCPHKFPAIQNLALRNTGMETPTGVCAALAAAGVQPHSLDLSHNSLRATVNPSAPRCMWSSALNSLNLSFAGLEQVPKGLPAKLRVLDLSCNRLNRAPQPDELPEVDNLTLDGNPFLVPGTALPHEGSMQSVVVPACARSTLSVGVSGTLVLLQGARGFA
notes: Expressed from pM1656 in COS-1 cells; GPI-anchoring sites Asn326 and Gly328 replaced by Gln and Val to give a soluble protein; In the BIACORE experiments it stood as a complex with LPS or FITC-LPS; also called full-length type human soluble CD14; recombinant soluble type CD14

Experiments:
[1] = biological target: F1024-1-3 antibody; experiment: competition ELISA: 4-fold diluted serum mixed with 1 µg/mL peroxidase-labeled F1024-1-3 on immobilised human sCD14(1-356)
[2] = biological target: T1, sCD14(1-307)S286C; experiment: BIACORE 3000, injected over immobilised sCD14(1-356), no LPS

Binder | inhibition ratio of binding of F1024-1-3 antibody to human CD14 [1] [%] | binding result [2]
B1 | 83 | 
B2 | 44 | 
B3 | 57 | 
B4 | 52 | 
B5 |  | no binding (tested: 10 µg/mL)
